Assays:
BRD4 = molecular target: T1, BRD4 (human, UniProt O60885 1-1362); test: co-IP from 293T cells transfected with Flag-tagged USPs and HA-BRD4
T1 construct: One entry covers endogenous, Flag-tagged and HA-tagged full-length BRD4; also called FLAG-BRD4; Flag-BRD4
Procedure: (§1) To immunoprecipitate the ectopically expressed FLAG-tagged proteins, transfected cells were lysed 24 hours post-transfection in BC100 buffer. The whole-cell lysates were immunoprecipitated with the monoclonal anti-FLAG antibody-conjugated M2 agarose beads (Sigma-Aldrich) at 4° C. overnight. After three washes with lysis buffer, followed by two washes with BC100 buffer, the bound proteins were eluted using FLAG-Peptide (Sigma-Aldrich) prepared in BC100 for 3 hours at 4° C. The eluted protein sample was resolved by SDS-PAGE. To immunoprecipitate the endogenous proteins, cells were lysed with 1× cell lysis buffer (Cell Signaling Technology), and the lysate was centrifuged. The supernatant was precleared with protein A/G beads (Sigma-Aldrich) and incubated with the indicated antibody and protein A/G beads at 4° C. overnight. Beads were washed five times with lysis buffer and resuspended in sample buffer and analyzed by SDS-PAGE.

NCOR2 = NCOR2 (human, UniProt Q9Y618 1-2514, limits assumed); test: reciprocal co-IP of endogenous proteins in C4-2 cells
Procedure: as §1

NCOR2, sequence (Q9Y618 whole entry): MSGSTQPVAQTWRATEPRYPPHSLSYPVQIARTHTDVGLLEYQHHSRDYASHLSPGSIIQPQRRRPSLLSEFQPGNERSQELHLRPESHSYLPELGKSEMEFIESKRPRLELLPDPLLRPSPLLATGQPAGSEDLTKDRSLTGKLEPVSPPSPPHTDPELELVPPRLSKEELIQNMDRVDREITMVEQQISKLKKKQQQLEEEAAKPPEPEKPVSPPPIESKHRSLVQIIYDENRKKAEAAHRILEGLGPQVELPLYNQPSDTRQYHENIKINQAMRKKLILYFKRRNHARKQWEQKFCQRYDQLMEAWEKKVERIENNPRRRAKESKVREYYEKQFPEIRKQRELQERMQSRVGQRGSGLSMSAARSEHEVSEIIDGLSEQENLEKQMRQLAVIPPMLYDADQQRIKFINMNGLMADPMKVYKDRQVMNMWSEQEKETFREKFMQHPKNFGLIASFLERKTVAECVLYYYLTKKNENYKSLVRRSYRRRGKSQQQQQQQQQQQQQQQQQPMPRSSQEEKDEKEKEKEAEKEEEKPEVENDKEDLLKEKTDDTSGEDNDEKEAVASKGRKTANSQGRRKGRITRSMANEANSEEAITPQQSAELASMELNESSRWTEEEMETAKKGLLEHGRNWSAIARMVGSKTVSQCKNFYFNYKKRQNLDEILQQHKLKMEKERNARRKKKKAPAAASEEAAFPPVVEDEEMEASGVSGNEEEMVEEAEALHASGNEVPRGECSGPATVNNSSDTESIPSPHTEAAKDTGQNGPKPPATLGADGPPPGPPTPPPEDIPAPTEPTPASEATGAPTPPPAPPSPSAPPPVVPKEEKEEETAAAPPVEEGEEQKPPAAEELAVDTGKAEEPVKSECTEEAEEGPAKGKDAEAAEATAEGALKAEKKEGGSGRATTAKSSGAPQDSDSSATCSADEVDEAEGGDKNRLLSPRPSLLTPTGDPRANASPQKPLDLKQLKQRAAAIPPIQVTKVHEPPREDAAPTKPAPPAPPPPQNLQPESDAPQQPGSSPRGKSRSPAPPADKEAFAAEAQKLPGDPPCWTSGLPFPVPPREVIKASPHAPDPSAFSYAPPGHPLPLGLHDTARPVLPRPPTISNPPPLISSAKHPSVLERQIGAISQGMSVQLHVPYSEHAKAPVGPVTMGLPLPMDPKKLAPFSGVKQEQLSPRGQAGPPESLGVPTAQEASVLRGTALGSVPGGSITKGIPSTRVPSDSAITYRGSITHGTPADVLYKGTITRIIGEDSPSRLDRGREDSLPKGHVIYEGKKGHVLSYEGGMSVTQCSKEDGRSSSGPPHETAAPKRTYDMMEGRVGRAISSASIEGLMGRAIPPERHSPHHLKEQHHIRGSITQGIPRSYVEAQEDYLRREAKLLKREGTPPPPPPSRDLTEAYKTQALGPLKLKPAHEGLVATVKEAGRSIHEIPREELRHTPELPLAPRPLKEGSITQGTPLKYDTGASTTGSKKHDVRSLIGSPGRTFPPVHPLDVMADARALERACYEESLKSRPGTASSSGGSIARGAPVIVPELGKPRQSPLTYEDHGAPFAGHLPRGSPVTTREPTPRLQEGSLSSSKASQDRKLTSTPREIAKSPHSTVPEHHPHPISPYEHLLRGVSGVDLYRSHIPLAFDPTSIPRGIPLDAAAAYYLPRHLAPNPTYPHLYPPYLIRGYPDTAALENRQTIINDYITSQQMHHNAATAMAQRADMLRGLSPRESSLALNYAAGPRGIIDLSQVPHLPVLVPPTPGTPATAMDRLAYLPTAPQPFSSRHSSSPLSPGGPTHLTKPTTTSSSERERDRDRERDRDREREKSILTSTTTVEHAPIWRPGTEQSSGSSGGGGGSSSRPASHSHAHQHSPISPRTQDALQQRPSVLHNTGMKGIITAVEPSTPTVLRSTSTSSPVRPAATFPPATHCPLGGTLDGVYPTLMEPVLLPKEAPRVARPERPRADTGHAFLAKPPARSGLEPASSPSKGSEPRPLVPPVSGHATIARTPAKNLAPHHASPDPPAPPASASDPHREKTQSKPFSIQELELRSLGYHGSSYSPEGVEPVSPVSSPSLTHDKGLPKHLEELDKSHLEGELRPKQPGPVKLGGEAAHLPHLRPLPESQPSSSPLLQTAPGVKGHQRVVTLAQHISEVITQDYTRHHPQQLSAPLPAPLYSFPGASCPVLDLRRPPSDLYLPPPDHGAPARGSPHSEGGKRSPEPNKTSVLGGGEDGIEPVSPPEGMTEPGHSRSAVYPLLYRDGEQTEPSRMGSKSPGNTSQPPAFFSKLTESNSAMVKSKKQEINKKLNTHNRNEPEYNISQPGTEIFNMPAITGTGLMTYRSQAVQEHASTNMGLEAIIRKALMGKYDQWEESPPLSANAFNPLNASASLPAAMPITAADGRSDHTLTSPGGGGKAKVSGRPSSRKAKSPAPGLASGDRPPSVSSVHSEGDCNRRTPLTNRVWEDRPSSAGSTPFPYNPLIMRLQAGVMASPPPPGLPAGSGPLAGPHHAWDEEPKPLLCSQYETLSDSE

| Binder | binding result (BRD4) | binding result (NCOR2) |
| --- | --- | --- |
| Flag-USP28 (enzyme, UniProt Q96RU2 1-1077, looked up, not shown: Flag tag) MTAELQQDDAAGAADGHGSSCQMLLNQLREITGIQDPSFLHEALKASNGDITQAVSLLTDERVKEPSQDTVATEPSEVEGSAANKEVLAKVIDLTHDNKDDLQAAIALSLLESPKIQADGRDLNRMHEATSAETKRSKRKRCEVWGENPNPNDWRRVDGWPVGLKNVGNTCWFSAVIQSLFQLPEFRRLVLSYSLPQNVLENCRSHTEKRNIMFMQELQYLFALMMGSNRKFVDPSAALDLLKGAFRSSEEQQQDVSEFTHKLLDWLEDAFQLAVNVNSPRNKSENPMVQLFYGTFLTEGVREGKPFCNNETFGQYPLQVNGYRNLDECLEGAMVEGDVELLPSDHSVKYGQERWFTKLPPVLTFELSRFEFNQSLGQPEKIHNKLEFPQIIYMDRYMYRSKELIRNKRECIRKLKEEIKILQQKLERYVKYGSGPARFPLPDMLKYVIEFASTKPASESCPPESDTHMTLPLSSVHCSVSDQTSKESTSTESSSQDVESTFSSPEDSLPKSKPLTSSRSSMEMPSQPAPRTVTDEEINFVKTCLQRWRSEIEQDIQDLKTCIASTTQTIEQMYCDPLLRQVPYRLHAVLVHEGQANAGHYWAYIYNQPRQSWLKYNDISVTESSWEEVERDSYGGLRNVSAYCLMYINDKLPYFNAEAAPTESDQMSEVEALSVELKHYIQEDNWRFEQEVEEWEEEQSCKIPQMESSTNSSSQDYSTSQEPSVASSHGVRCLSSEHAVIVKEQTAQAIANTARAYEKSGVEAALSEVMLSPAMQGVILAIAKARQTFDRDGSEAGLIKAFHEEYSRLYQLAKETPTSHSDPRLQHVLVYFFQNEAPKRVVERTLLEQFADKNLSYDERSISIMKVAQAKLKEIGPDDMNMEEYKKWHEDYSLFRKVSVYLLTGLELYQKGKYQEALSYLVYAYQSNAALLMKGPRRGVKESVIALYRRKCLLELNAKAASLFETNDDHSVTEGINVMNELIIPCIHLIINNDISKDDLDAIEVMRNHWCSYLGQDIAENLQLCLGEFLPRLLDPSAEIIVLKEPPTIRPNSPYDLCSRFAAVMESIQGVSTVTVK | no binding |  |
| Flag-USP49 (enzyme, UniProt Q70CQ1 1-688, looked up, not shown: Flag tag) MDRCKHVGRLRLAQDHSILNPQKWCCLECATTESVWACLKCSHVACGRYIEDHALKHFEETGHPLAMEVRDLYVFCYLCKDYVLNDNPEGDLKLLRSSLLAVRGQKQDTPVRRGRTLRSMASGEDVVLPQRAPQGQPQMLTALWYRRQRLLARTLRLWFEKSSRGQAKLEQRRQEEALERKKEEARRRRREVKRRLLEELASTPPRKSARLLLHTPRDAGPAASRPAALPTSRRVPAATLKLRRQPAMAPGVTGLRNLGNTCYMNSILQVLSHLQKFRECFLNLDPSKTEHLFPKATNGKTQLSGKPTNSSATELSLRNDRAEACEREGFCWNGRASISRSLELIQNKEPSSKHISLCRELHTLFRVMWSGKWALVSPFAMLHSVWSLIPAFRGYDQQDAQEFLCELLHKVQQELESEGTTRRILIPFSQRKLTKQVLKVVNTIFHGQLLSQVTCISCNYKSNTIEPFWDLSLEFPERYHCIEKGFVPLNQTECLLTEMLAKFTETEALEGRIYACDQCNSKRRKSNPKPLVLSEARKQLMIYRLPQVLRLHLKRFRWSGRNHREKIGVHVVFDQVLTMEPYCCRDMLSSLDKETFAYDLSAVVMHHGKGFGSGHYTAYCYNTEGGFWVHCNDSKLNVCSVEEVCKTQAYILFYTQRTVQGNARISETHLQAQVQSSNNDEGRPQTFS | no binding |  |
| Flag-USP13 (enzyme, UniProt Q92995 1-863, looked up, not shown: Flag tag) MQRRGALFGMPGGSGGRKMAAGDIGELLVPHMPTIRVPRSGDRVYKNECAFSYDSPNSEGGLYVCMNTFLAFGREHVERHFRKTGQSVYMHLKRHVREKVRGASGGALPKRRNSKIFLDLDTDDDLNSDDYEYEDEAKLVIFPDHYEIALPNIEELPALVTIACDAVLSSKSPYRKQDPDTWENELPVSKYANNLTQLDNGVRIPPSGWKCARCDLRENLWLNLTDGSVLCGKWFFDSSGGNGHALEHYRDMGYPLAVKLGTITPDGADVYSFQEEEPVLDPHLAKHLAHFGIDMLHMHGTENGLQDNDIKLRVSEWEVIQESGTKLKPMYGPGYTGLKNLGNSCYLSSVMQAIFSIPEFQRAYVGNLPRIFDYSPLDPTQDFNTQMTKLGHGLLSGQYSKPPVKSELIEQVMKEEHKPQQNGISPRMFKAFVSKSHPEFSSNRQQDAQEFFLHLVNLVERNRIGSENPSDVFRFLVEERIQCCQTRKVRYTERVDYLMQLPVAMEAATNKDELIAYELTRREAEANRRPLPELVRAKIPFSACLQAFSEPENVDDFWSSALQAKSAGVKTSRFASFPEYLVVQIKKFTFGLDWVPKKFDVSIDMPDLLDINHLRARGLQPGEEELPDISPPIVIPDDSKDRLMNQLIDPSDIDESSVMQLAEMGFPLEACRKAVYFTGNMGAEVAFNWIIVHMEEPDFAEPLTMPGYGGAASAGASVFGASGLDNQPPEEIVAIITSMGFQRNQAIQALRATNNNLERALDWIFSHPEFEEDSDFVIEMENNANANIISEAKPEGPRVKDGSGTYELFAFISHMGTSTMSGHYICHIKKEGRWVIYNDHKVCASERPPKDLGYMYFYRRIPS | no binding |  |
| Flag-USP15 (enzyme, UniProt Q9Y4E8 1-981, looked up, not shown: Flag tag) MAEGGAADLDTQRSDIATLLKTSLRKGDTWYLVDSRWFKQWKKYVGFDSWDKYQMGDQNVYPGPIDNSGLLKDGDAQSLKEHLIDELDYILLPTEGWNKLVSWYTLMEGQEPIARKVVEQGMFVKHCKVEVYLTELKLCENGNMNNVVTRRFSKADTIDTIEKEIRKIFSIPDEKETRLWNKYMSNTFEPLNKPDSTIQDAGLYQGQVLVIEQKNEDGTWPRGPSTPKSPGASNFSTLPKISPSSLSNNYNNMNNRNVKNSNYCLPSYTAYKNYDYSEPGRNNEQPGLCGLSNLGNTCFMNSAIQCLSNTPPLTEYFLNDKYQEELNFDNPLGMRGEIAKSYAELIKQMWSGKFSYVTPRAFKTQVGRFAPQFSGYQQQDCQELLAFLLDGLHEDLNRIRKKPYIQLKDADGRPDKVVAEEAWENHLKRNDSIIVDIFHGLFKSTLVCPECAKISVTFDPFCYLTLPLPMKKERTLEVYLVRMDPLTKPMQYKVVVPKIGNILDLCTALSALSGIPADKMIVTDIYNHRFHRIFAMDENLSSIMERDDIYVFEININRTEDTEHVIIPVCLREKFRHSSYTHHTGSSLFGQPFLMAVPRNNTEDKLYNLLLLRMCRYVKISTETEETEGSLHCCKDQNINGNGPNGIHEEGSPSEMETDEPDDESSQDQELPSENENSQSEDSVGGDNDSENGLCTEDTCKGQLTGHKKRLFTFQFNNLGNTDINYIKDDTRHIRFDDRQLRLDERSFLALDWDPDLKKRYFDENAAEDFEKHESVEYKPPKKPFVKLKDCIELFTTKEKLGAEDPWYCPNCKEHQQATKKLDLWSLPPVLVVHLKRFSYSRYMRDKLDTLVDFPINDLDMSEFLINPNAGPCRYNLIAVSNHYGGMGGGHYTAFAKNKDDGKWYYFDDSSVSTASEDQIVSKAAYVLFYQRQDTFSGTGFFPLDRETKGASAATGIPLESDEDSNDNDNDIENENCMHTN | no binding |  |
| HDAC10 (enzyme, human, UniProt Q969S8 1-669, looked up) MGTALVYHEDMTATRLLWDDPECEIERPERLTAALDRLRQRGLEQRCLRLSAREASEEELGLVHSPEYVSLVRETQVLGKEELQALSGQFDAIYFHPSTFHCARLAAGAGLQLVDAVLTGAVQNGLALVRPPGHHGQRAAANGFCVFNNVAIAAAHAKQKHGLHRILVVDWDVHHGQGIQYLFEDDPSVLYFSWHRYEHGRFWPFLRESDADAVGRGQGLGFTVNLPWNQVGMGNADYVAAFLHLLLPLAFEFDPELVLVSAGFDSAIGDPEGQMQATPECFAHLTQLLQVLAGGRVCAVLEGGYHLESLAESVCMTVQTLLGDPAPPLSGPMAPCQSALESIQSARAAQAPHWKSLQQQDVTAVPMSPSSHSPEGRPPPLLPGGPVCKAAASAPSSLLDQPCLCPAPSVRTAVALTTPDITLVLPPDVIQQEASALREETEAWARPHESLAREEALTALGKLLYLLDGMLDGQVNSGIAATPASAAAATLDVAVRRGLSHGAQRLLCVALGQLDRPPDLAHDGRSLWLNIRGKEAAALSMFHVSTPLPVMTGGFLSCILGLVLPLAYGFQPDLVLVALGPGHGLQGPHAALLAAMLRGLAGGRVLALLEENSTPQLAGILARVLNGEAPPSLGPSSVASPEDVQALMYLRGQLEPQWKMLQCHPHLVA |  | binds |

— patent publication US20220016130A1 (MAYO FOUNDATION FOR MEDICAL EDUCATION AND RESEARCH, published 2022)
